This is an account of results in PMC9675814, “DNA mechanical flexibility controls DNA potential to activate cGAS-mediated immune surveillance”.

The Kd is a measure of binding affinity in units of concentration.

The target of data set [1] is T1, hcGAS WT (Homo sapiens, UniProt Q8N884 1-522). Put plainly: MST. The settings on record: EMSA: 50 nM Cy3-DNA, 20 mM Tris-HCl pH 7.5, 150 mM NaCl, 37 C 30 min, 1.5% agarose, MST: 50 nM Cy5-DNA, same buffer, room temperature, MARTFQ: 50 nM cGAS. On the technique in general: Mobility shift assays separate free from complexed probe on a gel.
T1 sequence (Q8N884 whole entry): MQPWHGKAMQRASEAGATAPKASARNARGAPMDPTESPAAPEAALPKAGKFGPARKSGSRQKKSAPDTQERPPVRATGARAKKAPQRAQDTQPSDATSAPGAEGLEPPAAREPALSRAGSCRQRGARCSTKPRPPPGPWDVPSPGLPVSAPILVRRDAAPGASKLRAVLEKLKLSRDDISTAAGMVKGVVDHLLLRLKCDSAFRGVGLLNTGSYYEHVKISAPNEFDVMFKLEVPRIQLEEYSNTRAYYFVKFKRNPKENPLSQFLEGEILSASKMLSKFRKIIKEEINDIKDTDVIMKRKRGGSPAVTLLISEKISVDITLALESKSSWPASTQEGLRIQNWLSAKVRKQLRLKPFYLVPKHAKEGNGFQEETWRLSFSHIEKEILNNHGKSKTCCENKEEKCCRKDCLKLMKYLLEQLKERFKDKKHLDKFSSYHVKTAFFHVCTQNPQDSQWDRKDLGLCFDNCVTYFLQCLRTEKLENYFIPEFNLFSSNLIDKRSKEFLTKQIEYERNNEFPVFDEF
Data set [2] has as its target T1, hcGAS WT. Kind of data set: EMSA; EMSA: 50 nM Cy3-DNA, 20 mM Tris-HCl pH 7.5, 150 mM NaCl, 37 C 30 min, 1.5% agarose; MST: 50 nM Cy5-DNA, same buffer, room temperature; MARTFQ: 50 nM cGAS, DNA titration, 5 min. The settings on record: protein: recombinant, tags: His (pET-28a, Ni purified), label: 5' Cy3 on F (EMSA).
In data set [3] the target is T1, hcGAS WT. Kind of data set: MARTFQ fluorescence quenching; EMSA: 50 nM Cy3-DNA, 20 mM Tris-HCl pH 7.5, 150 mM NaCl, 37 C 30 min, 1.5% agarose; MST: 50 nM Cy5-DNA, same buffer, room temperature; MARTFQ: 50 nM cGAS, DNA titration, 5 min. The settings on record: protein: recombinant, tags: His (pET-28a, Ni purified).
Where [4] appears, read: blunt, self-complementary strands.

Turning to Nick ISD, in the data set with hcGAS WT [1] (nick), the Kd was found to be 150 nM. The molecule Mis ISD returned a Kd in the data set with hcGAS WT [1] (mismatch) of 108 nM.

For the molecule 8-OdG ISD, the Kd with hcGAS WT [1] (8-oxo-dG) is 97.9 nM. In turn, Ctrl ISD came in with a Kd in the data set with hcGAS WT [1] of 1270 nM. In the case of Gap ISD, the Kd in the data set with hcGAS WT [1] (gap) came to 75.8 nM.

B1: E8 63 bp (dsDNA)
DNA 1: TTTTATTTATCGCCTCCACGGTGCTGCACGTACGCGCTGTTGGCCGTGTTATCTCGAGTTAGT
DNA 2: ACTAACTCGAGATAACACGGCCAACAGCGCGTACGTGCAGCACCGTGGAGGCGATAAATAAAA
In the case of B1, in the data set with hcGAS WT [2] (blunt), the binding result is “binds”.

B2: pAT 44 bp poly(dA:dT) (dsDNA)
DNA 1: ATATATATATATATATATATATATATATATATATATATATATAT
DNA 2: B2 DNA 1
As to B2, in the data set with hcGAS WT [3] (setting [4]), the Kd amounted to 640 ± 123 nM.

B3: Gap E8A26 63 bp (dsDNA)
DNA 1: TTTTATTTATCGCCTCCTTTTTTTTTTTTTTTTTTTTTTTTTTCCGTGTTATCTCGAGTTAGT
DNA 2: ACTAACTCGAGATAACACGGAAA
DNA 3: AAAAAAAAAAAAAAAAAAAAAAGGAGGCGATAAATAAAA
modifications: 1 nt gap in R strand
Regarding B3, the binding result with hcGAS WT [2] (gapped duplex, three strands) is given as “binds”.

B4: pGC 44 bp poly(dG:dC) (dsDNA)
DNA 1: CGCGCGCGCGCGCGCGCGCGCGCGCGCGCGCGCGCGCGCGCGCG
DNA 2: B4 DNA 1
For the molecule B4, in the data set with hcGAS WT [3] (setting [4]), the Kd was found to be 376 ± 78.8 nM.

B5: pA:pT 44 bp (dsDNA)
DNA 1: AAAAAAAAAAAAAAAAAAAAAAAAAAAAAAAAAAAAAAAAAAAA
DNA 2: TTTTTTTTTTTTTTTTTTTTTTTTTTTTTTTTTTTTTTTTTTTT
Consider B5, for which the Kd with hcGAS WT [3] (blunt) is 3460 ± 637 nM.

B6: Gap pA:pT 44 bp (dsDNA)
DNA 1: B5 DNA 1
DNA 2: TTTTTTTTTTTTTTTTTTTTTT
DNA 3: TTTTTTTTTTTTTTTTTTTTT
modifications: 1 nt gap in dT strand
In the case of B6, the Kd with hcGAS WT [3] (gapped duplex, three strands) turned out to be 190 ± 35.2 nM.
